The supplement of paper PMC10567573

B1: TBX5 (parent)
chain: YQNHKITQLKIENNPFAKGFRGSD

Variants of: B1
Assay: protein stability index of a GFP-peptide fusion (GPS, HEK-293T) (PSI 1-6); higher = more stable
Settings: c terminus: a fixed tail appended
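Note: lentivirally expressed fusions sorted by FACS into six bins by GFP to DsRed ratio, PSI derived from sequencing read proportions per bin multiplied by bin number.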

Protein stability index: each site, then its substitutions
N3: M 2.16 | F 2.23 | D 2.71 | R 2.44 | L 2.07 | T 2.42 | S 2.3 | I 1.97 | Y 1.99 | P 2.57 | C 1.75 | E 3.33 | H 2.29 | K 2.64 | Q 2.93 | V 2.39 | G 2.26 | W 1.89 | A 1.94
Y1: S 2.82 | V 3.22 | T 3.65 | W 2.92
H4: G 2.57 | E 3.19 | L 3.06 | R 2.77 | A 2.52 | K 2.4 | I 2.11 | T 2.44 | D 3.52 | W 2.89 | Q 2.66 | Y 2.15 | M 2.49 | C 1.67 | F 1.89 | N 2.87 | V 2.68 | S 2.62 | P 2.58
Q8: W 1.57 | D 2.75 | I 2.06 | M 2.2 | A 2.79 | F 1.7 | K 2.28 | C 1.91 | E 2.97 | R 1.99 | V 2.49 | Y 1.57 | N 2.4 | H 2.41 | L 1.41 | T 2.19 | G 2.73 | P 2.41 | S 2.13
L9: G 2.35 | I 2.73 | H 2.38 | W 1.71 | D 3.21 | A 2.83 | F 2.26 | Q 3.19 | R 3.54 | V 4.05 | E 3.09 | N 3.01 | K 2.81 | C 2.02 | S 3.07 | P 2.84 | Y 2.31 | M 2.58 | T 2.37
I6: Y 2.53 | E 3.16 | P 2.8 | G 2.3 | V 2.4 | A 3.47 | W 4.36 | Q 2.98 | S 3.04 | D 3.53 | R 2.79 | L 2.45 | C 2.36 | H 2.83 | M 2.7 | N 3.09 | T 3.06 | K 3.27 | F 2.45
Q2: D 4.02 | A 1.84 | N 3.48 | W 2.04 | S 3.26 | T 2.4 | G 2.54 | I 2.19 | V 2.39 | P 2.63 | K 2.85 | R 2.61 | C 2.54 | M 2.61 | F 2.75 | L 2.84 | H 1.46 | Y 2.92 | E 3.14
T7: M 2.21 | R 2.48 | C 1.94 | S 2.46 | V 2.29 | L 2.3 | A 2.15 | Y 2.37 | Q 2.63 | D 2.69 | I 2.5 | P 2.85 | E 3.32 | N 2.59 | H 2.77 | W 3.51 | G 2.12 | F 1.61 | K 3.31
K10: A 2.91 | E 3.11 | D 2.68 | I 1.63 | H 2.2 | L 2.03 | G 1.85 | N 2.46 | M 2.23 | C 2.11 | F 1.81
K5: W 2.64 | Y 1.95 | H 2.03 | G 2.57 | L 2.18 | F 1.84 | M 2 | A 2.7 | S 2.21 | R 2.38 | V 2.44 | N 2.59 | I 1.51 | T 2.44 | P 2.77 | Q 2.81 | D 3.06 | C 2.15 | E 2.98
